Experimental data from US20110184152A1 (published 2011).
Blank lines part the entries; values can stand above or below the binder they belong to.

Legend:
mouse serum albumin [1] = target: T1, mouse serum albumin (mouse, UniProt P07724 25-608); test: SPR (Biacore), purified construct
T1 construct: also called MSA; MurineSA

mouse serum albumin [2] = target: T1, mouse serum albumin; test: affinity as humanised IgG; method not named
rat serum albumin = target: T2, rat serum albumin (rat, UniProt P02770 25-608); test: affinity as humanised IgG; method not named
T2 construct: also called RatSA

IL-1β = target: T3, IL-1β; test: SPR (Biacore), construct captured, IL-1β injected
T3 construct: also called IL-1 beta
Protocol: (§1) Covalent immobilisation of the capture antibody was achieved by standard amine coupling chemistry.
Kinetic parameters were determined by simultaneous global-fitting of the resulting sensorgrams to a standard 1:1 binding model using Biacore T100 Evaluation software.

human serum albumin [3] = target: T4, human serum albumin (human, UniProt P02768 25-609); test: SPR (Biacore), construct captured, HSA injected
T4 construct: also called HSA; HumanSA

human serum albumin [4] = target: T4, human serum albumin; test: SPR (Biacore), running buffer pH6.0; pH 6
human serum albumin [5] = target: T4, human serum albumin; test: SPR (Biacore), construct captured from HEK293 supernatant, HSA injected
human serum albumin [6] = target: T4, human serum albumin; test: SPR (Biacore), running buffer pH5.0; pH 5
Description: as §1

human serum albumin [7] = target: T4, human serum albumin; test: SPR (Biacore), running buffer pH7.0; pH 7
Description: as §1

human serum albumin [8] = target: T4, human serum albumin; test: SPR (Biacore), purified construct
human serum albumin [9] = target: T4, human serum albumin; test: SPR (Biacore), running buffer pH5.5; pH 5.5
Description: as §1

mouse serum albumin [10] = target: T1, mouse serum albumin; test: SPR (Biacore), purified construct; remark: listed apart in the source
human serum albumin [11] = target: T4, human serum albumin; test: SPR (Biacore), purified construct; remark: listed apart in the source
human serum albumin [12] = target: T4, human serum albumin; test: SPR (BIAcore)
human serum albumin [13] = target: T4, human serum albumin; test: affinity as humanised IgG; method not named

B3: Fab′A (Fab, V domains shown)
VH: EVQLVESGGGLVQPGGSLRLSCAFSGFSLSTSGVGVGWVRQAPGKGLEWVAHIWWDGDESYNPSLKTQFTISKDTSKNTVYLQMNSLRAEDTAVYYCARNRYDPPWFVDWGQGTLVTVSS
VL: DIQMTQSPSSLSASVGDRVTITCRASQDISNYLSWYQQKPGKAPKLLIYYTSKLHSGVPSRFSGSGSGTDYTLTISSLQPEDFATYYCQQGKMLPWTFGQGTKVEIKR
Kd (IL-1β): 0.32 nM
koff (IL-1β): 6.46e-05 s⁻¹
kon (IL-1β): 202000 M⁻¹ s⁻¹

B4: FabA (Fab, V domains shown)
VH: EVQLVESGGGLVQPGGSLRLSCAFSGFSLSTSGVGVGWVRQAPGKGLEWVAHIWWDGDESYNPSLKTQFTISKDTSKNTVYLQMNSLRAEDTAVYYCARNRYDPPWFVDWGQGTLVTVSS
VL: DIQMTQSPSSLSASVGDRVTITCRASQDISNYLSWYQQKPGKAPKLLIYYTSKLHSGVPSRFSGSGSGTDYTLTISSLQPEDFATYYCQQGKMLPWTFGQGTKVEIKR
binding result (human serum albumin [3]): no binding

B5: FabB-didAb, -dAbL1 (CK-G4Sx2) & dAbH1 (CH1-G4Sx2) (bispecific antibody)
heavy: ASTKGPSVFPLAPSSKSTSGGTAALGCLVKDYFPEPVTVSWNSGALTSGVHTFPAVLQSSGLYSLSSVVTVPSSSLGTQTYICNVNHKPSNTKVDKKVEPKSCGGGGSGGGGSEVQLLESGGGLVQPGGSLRLSCAVSGIDLSNYAINWVRQAPGKGLEWIGIIWASGTTFYATWAKGRFTISRDSTTVYLQMNSLRAEDTAVYYCARTVPGYSTAPYFDLWGQGTLVTVSS
light: RTVAAPSVFIFPPSDEQLKSGTASVVCLLNNFYPREAKVQWKVDNALQSGNSQESVTEQDSKDSTYSLSSTLTLSKADYEKHKVYACEVTHQGLSSPVTKSFNRGECGGGGSGGGGSDIVMTQSPSSVSASVGDRVTITCQSSPSVWSNFLSWYQQKPGKAPKLLIYEASKLTSGVPSRFKGSGSGTDFTLTISSLQPEDFATYYCGGGYSSISDTTFGGGTKVEIK
notes: also called FabB-645Fv (G4Sx2); FabB-645Fv (2xG4S)
Kd (human serum albumin [4]): 12.5 nM
Kd (human serum albumin [5]): 9 nM
koff (human serum albumin [5]): 0.00016 s⁻¹
kon (human serum albumin [5]): 17800 M⁻¹ s⁻¹
Kd (human serum albumin [6]): 7.1 nM
Kd (human serum albumin [7]): 13.3 nM
Kd (mouse serum albumin [1]): 24.7 nM
Kd (human serum albumin [8]): 17.5 nM
Kd (human serum albumin [9]): 10.7 nM
Kd (mouse serum albumin [10]): 8.01 nM
Kd (human serum albumin [11]): 6.72 nM

B7: Antibody 1 (Antibody 645) as humanised IgG (antibody, V domains shown)
VH: EVQLLESGGGLVQPGGSLRLSCAVSGIDLSNYAINWVRQAPGKGLEWIGIIWASGTTFYATWAKGRFTISRDSTTVYLQMNSLRAEDTAVYYCARTVPGYSTAPYFDLWGQGTLVTVSS
VL: DIVMTQSPSSVSASVGDRVTITCQSSPSVWSNFLSWYQQKPGKAPKLLIYEASKLTSGVPSRFKGSGSGTDFTLTISSLQPEDFATYYCGGGYSSISDTTFGGGTKVEIK
notes: tested as humanised IgG; one grafted VH and one grafted VL were designed for this antibody
Kd (mouse serum albumin [2]): 2.9 nM
Kd (rat serum albumin): 7.9 nM
Kd (human serum albumin [13]): 0.82 nM

Next, values leading:

Kd (mouse serum albumin [1]): 42.4 nM
B1: FabB-didAb, -dAbL2 (CK-G4Sx2) & dAbH2 (CH1-G4Sx2) (bispecific antibody)
heavy: ASTKGPSVFPLAPSSKSTSGGTAALGCLVKDYFPEPVTVSWNSGALTSGVHTFPAVLQSSGLYSLSSVVTVPSSSLGTQTYICNVNHKPSNTKVDKKVEPKSCGGGGSGGGGSEVQLVESGGGLVQPGGSLRLSCAVSGFSLSRYAMTWVRQAPGKGLEWIGTITTGGNTNYANWAKGRFTISKDSTTVYLQMNSLRAEDTAVYYCARGGYVSYADATELSLWGQGTLVTVSS
light: RTVAAPSVFIFPPSDEQLKSGTASVVCLLNNFYPREAKVQWKVDNALQSGNSQESVTEQDSKDSTYSLSSTLTLSKADYEKHKVYACEVTHQGLSSPVTKSFNRGECGGGGSGGGGSDIVMTQSPSTLSASVGDRVTITCQASQSIGSRLAWYQQKPGKAPKLLIYYASTVASGVPSRFKGSGSGTEFTLTISSLQPDDFATYYCQSYDYSSSSSYAFGGGTKVEIK
notes: also called FabB-648Fv (G4Sx2); FabB-648Fv (2xG4S)

Kd (mouse serum albumin [2]): 23 nM
Kd (rat serum albumin): 54 nM
B2: Antibody 2 (Antibody 648) as humanised IgG (antibody, V domains shown)
VH: EVQLVESGGGLVQPGGSLRLSCAVSGFSLSRYAMTWVRQAPGKGLEWIGTITTGGNTNYANWAKGRFTISKDSTTVYLQMNSLRAEDTAVYYCARGGYVSYADATELSLWGQGTLVTVSS
VL: DIVMTQSPSTLSASVGDRVTITCQASQSIGSRLAWYQQKPGKAPKLLIYYASTVASGVPSRFKGSGSGTEFTLTISSLQPDDFATYYCQSYDYSSSSSYAFGGGTKVEIK
notes: as for B7

Kd (human serum albumin [12]): 87 nM
koff (human serum albumin [12]): 0.00107 s⁻¹
kon (human serum albumin [12]): 12300 M⁻¹ s⁻¹
B6: FabB-645dsFv (S3×G4S), Fv heavy mutation Y100cA (bispecific antibody, V domains shown)
VH: EVQLLESGGGLVQPGGSLRLSCAVSGIDLSNYAINWVRQAPGKCLEWIGIIWASGTTFYATWAKGRFTISRDSTTVYLQMNSLRAEDTAVYYCARTVPGYSTAPAFDLWGQGTLVTVSS
VL: DIVMTQSPSSVSASVGDRVTITCQSSPSVWSNFLSWYQQKPGKAPKLLIYEASKLTSGVPSRFKGSGSGTDFTLTISSLQPEDFATYYCGGGYSSISDTTFGCGTKVEIK
